Data taken from publication PMC3884217.

Target: Nud1 pT78 peptide (budding yeast)

B1: Mob1 (construct not stated for this experiment) (natural protein)
chain: MSFLQNFHISPGQTIRSTRGFKWNTANAANNAGSVSPTKATPHNNTINGNNNNANTINNRADFTNNPVNGYNESDHGRMSPVLTTPKRHAPPPEQLQNVTDFNYTPSHQKPFLQPQAGTTVTTHQDIKQIVEMTLGSEGVLNQAVKLPRGEDENEWLAVHCVDFYNQINMLYGSITEFCSPQTCPRMIATNEYEYLWAFQKGQPPVSVSAPKYVECLMRWCQDQFDDESLFPSKVTGTFPEGFIQRVIQPILRRLFRVYAHIYCHHFNEILELNLQTVLNTSFRHFCLFAQEFELLRPADFGPLLELVMELRDR
- Kd: 2400 nM
